Experimental data taken from publication PMC5030626, “G-quadruplex aptamer targeting Protein A and its capability to detect Staphylococcus aureus demonstrated by ELONA”.

Experiments:
[1] = target: T1, Protein A, recombinant (P7837) (Staphylococcus aureus, UniProt P02976 37-327); assay: ELONA; signal in range of library control; ELONA and bead assay: 100 mM NaCl, 20 mM Tris-HCl pH 7.6, 10 mM MgCl2, 5 mM KCl, 1 mM CaCl2, 0.005% Tween 20, 21 C; CD: 25 mM Britton-Robinson pH 7.6, 100 mM NaCl, 10 mM MgCl2, 1 mM CaCl2, 5 mM KCl
Protein A, native [2] = target: T2, Protein A, native (Staphylococcus aureus, UniProt P38507 37-477); assay: CD difference spectrum; ELONA and bead assay: 100 mM NaCl, 20 mM Tris-HCl pH 7.6, 10 mM MgCl2, 5 mM KCl, 1 mM CaCl2, 0.005% Tween 20, 21 C; CD: 25 mM Britton-Robinson pH 7.6, 100 mM NaCl, 10 mM MgCl2, 1 mM CaCl2, 5 mM KCl
[3] = target: T1, Protein A, recombinant (P7837); assay: ELONA; ELONA and bead assay: 100 mM NaCl, 20 mM Tris-HCl pH 7.6, 10 mM MgCl2, 5 mM KCl, 1 mM CaCl2, 0.005% Tween 20, 21 C; CD: 25 mM Britton-Robinson pH 7.6, 100 mM NaCl, 10 mM MgCl2, 1 mM CaCl2, 5 mM KCl; conditions: protein: recombinant
Protein A, native [4] = target: T2, Protein A, native; assay: as above; conditions: protein: native; label: 3'-biotin; G4 (parallel, di-/multimers) plus 5' imperfect hairpin

B1: PA#2/8[S1-50] (Bio) (structured_DNA)
DNA: ATACCAGCTTATTCAATTAGCAACATGAGGGGGATAGAGGGGGTGGGTTC
B1: no binding ([1]; label: biotin (5' or 3'; 3' on cells), G4 plus 5' imperfect hairpin).

B2: PA#2/8[S1-50] (unlabelled) (structured_DNA)
DNA: ATACCAGCTTATTCAATTAGCAACATGAGGGGGATAGAGGGGGTGGGTTC
B2: binds (Protein A, native [2]; G4 plus 5' imperfect hairpin).

B3: PA#2/8 (3'Bio) (structured_DNA)
DNA: ATACCAGCTTATTCAATTAGCAACATGAGGGGGATAGAGGGGGTGGGTTCTCTCGGCTACAATCGTAATCAGTTAG
B3 was tested, and the Kd ([3]; label: 3'-biotin, G4 (parallel, di-/multimers) plus 5' imperfect hairpin) was 101 ± 5.9 nM and the binding result (Protein A, native [4]) was “binds”.

B4: PA#2/8 (5'Bio) (structured_DNA)
DNA: ATACCAGCTTATTCAATTAGCAACATGAGGGGGATAGAGGGGGTGGGTTCTCTCGGCTACAATCGTAATCAGTTAG
In the case of B4, the Kd ([3]; label: 5'-biotin, G4 (parallel, di-/multimers) plus 5' imperfect hairpin) is reported as 190 ± 13 nM.

B5: PA#2/8 (unlabelled) (structured_DNA)
DNA: ATACCAGCTTATTCAATTAGCAACATGAGGGGGATAGAGGGGGTGGGTTCTCTCGGCTACAATCGTAATCAGTTAG
B5: binds (Protein A, native [2]; G4 (parallel, di-/multimers) plus 5' imperfect hairpin).

B6: PA#2/8[S1-58] (3'Bio) (structured_DNA)
DNA: ATACCAGCTTATTCAATTAGCAACATGAGGGGGATAGAGGGGGTGGGTTCTCTCGGCT
With B6 the Kd ([3]; label: 3'-biotin, G4 plus 5' imperfect hairpin) was 11.3 ± 1.4 nM.

B7: PA#2/8[S1-58] (5'Bio) (structured_DNA)
DNA: ATACCAGCTTATTCAATTAGCAACATGAGGGGGATAGAGGGGGTGGGTTCTCTCGGCT
B7 gave a Kd ([3]; label: 5'-biotin, G4 plus 5' imperfect hairpin) of 23.7 ± 2 nM.

B8: PA#2/8[S1-58] (unlabelled) (structured_DNA)
DNA: ATACCAGCTTATTCAATTAGCAACATGAGGGGGATAGAGGGGGTGGGTTCTCTCGGCT
B8: binds (Protein A, native [2]; G4 plus 5' imperfect hairpin).

B9: PA#2/8[S1-43] (Bio) (structured_DNA)
DNA: ATACCAGCTTATTCAATTAGCAACATGAGGGGGATAGAGGGGG
B9: no binding ([1]; label: biotin (5' or 3'), G4, mainly monomer, plus 5' imperfect hairpin).

B10: PA#2/8[S1-43] (unlabelled) (structured_DNA)
DNA: ATACCAGCTTATTCAATTAGCAACATGAGGGGGATAGAGGGGG
B10: binds (Protein A, native [2]; G4, mainly monomer, plus 5' imperfect hairpin).
